Laboratory results from patent publication US20190307907A1, “MOLECULAR SENSOR FOR NMR/MRI BASED ON ANALYTE-DEPENDENT SPECTRAL CHANGES OF TEMPORARILY ENCAPSULATED HYPERPOLARIZED 129XE” (KLINIKUM RECHTS DER ISAR DER TECHNISCHEN UNIVERSITÄT MÜNCHEN, priority 2016, published 2019).
Where no end group is shown, it is not given here. Cr‑A = cryptophane A cage on the Lys side chain; 5‑Fluo‑M = fluorescein maleimide

What was measured:
[1] = Circular dichroism and CEST spectra at different trifluoroethanol (TFE) concentrations (FIG. 12); assay type: physicochemical; details: for CEST signal in TFE: 20% and 50% TFE; for CEST signal in TFE / CEST signal in water: without Ca2+ or CaM; for helicity of the peptide moiety (CD spectra): different concentrations of TFE
Source text: FIG. 12: Spectroscopic changes upon conformational change.

calmodulin [2] = biological target: T1, calmodulin (Homo sapiens, UniProt P0DP23); assay: Hyper-CEST calcium titration, binding curves of cryptophane-peptide sensors with calmodulin; details: from CEST binding curves; 2 μM calmodulin; free calcium 0 to 39 μM; MOPS buffer; read-out: apparent dissociation constant
Protocol: (A) CEST spectra from M13 with a cryptophane Cage and also harboring a fluorescein (G-K(Cr-A)-[…]-C(5-Fluo-M)-amid) where Cr-A denotes the cryptophane A cage attached on the lysine residue and 5-Fluo-M a fluorescein attached to a cysteine) in the presence of 2 μM calmodulin and in response to free calcium concentrations ranging from 0 to 39 μM (MOPS buffer) (B) CEST spectra from RS20 (GRR-K(Cr-A)-WQKTGHAVRAIGRLSSS-C(5-Fluo-M)-amid; same annotation of modifications as in (A)) plotted analogously as in (A). (C) Corresponding binding curves yielding an apparent dissociation constant of 0.91 μM and 1 μM for M13 and RS20 respectively.
(§1) The production, delivery and application of hyperpolarized Xe for NMR and MRI studies has been described previously including a full list of materials (Witte et al., 2012; Witte et al., 2014). Typically, hyperpolarized ^129Xe (20% polarization and more) is generated by spin exchange optical pumping using a 150 W continuous wave laser (795 nm, 0.5 nm bandwidth) in a custom-designed continuous flow setup at 4.5 bar absolute pressure using a gas mixture of 5% Xe (26.4% natural abundance of ^129Xe), 10% N2, and 85% He.
Experiments benefit from high field MRI scanners because of the increased spectral resolution for resolving the CEST response. As an example, a 9.4 T NMR spectrometer can be used for the NMR experiments. […]

[3] = test system: lysates obtained from HEK293 cells; assay: Functionality of the sensor in cell lysates (FIG. 13); assay type: biochemical; details: for sensor response on addition of saturating calcium: HEK293 lysate with CaM, saturating amounts of calcium; for sensor response on addition of just CaM: HEK293 lysate, calcium already present in the lysate
Protocol: FIG. 13: Functionality of the sensor in cell lysates. The sensor M13-based sensor (blue) and RS20-based sensor (red) were added to lysates obtained from HEK293 cells.

calmodulin [4] = biological target: T1, calmodulin; assay: Hyper-CEST spectra of cryptophane-conjugated peptides with calmodulin in absence and presence of calcium (FIG. 5); assay type: biochemical; details: peptide 1 μM, calmodulin 3 μM, MOPS; for Ca2+-dependent CEST unsuppression / signal change on calmodulin binding: calcium up to 100 μM; for CEST suppression (baseline, absence of calcium): no calcium, hyperpolarized 129Xe, 9.4 T
Protocol: Hyperpolarized Xenon was bubbled into buffered (MOPS) solutions containing different cryptophane bearing peptides indicated in the respective subfigures (1 μM) and calmodulin (3 μM) in the absence and presence of 100 μM calcium and CEST spectra were obtained on a 9.4 T Bruker AV 400 wide bore NMR spectrometer. (E) Effects of C-terminal portion of RS20 on the NMR-signal modulation. Replacement of the maleimide-Fluorescein by a maleimide capping group (NEM) partially unsuppresses the CEST effect.
However, the CEST suppression and Ca^2+-mediated unsuppression is weaker if the cryptophane cage is attached at the third lysine (@K3, FIG. 5B). […] (FIG. 5C).
as §1
Experiments benefit from high field MRI scanners because of the increased spectral resolution for resolving the CEST response. As an example, a 9.4 T NMR spectrometer can be used for the NMR experiments. It requires gradient coils for MR imaging and a variable temperature unit for adjusting the sample temperature. A 10 mm inner-diameter double resonant probe (^129Xe (110 MHz) and ^iH (400 MHz)), can be used for excitation and detection.
The freshly hyperpolarized xenon gas mix is directly bubbled into solution for ca. 15 seconds at a total flow rate of 0.1 SLM followed by a 1 s delay (to allow possible remaining bubbles to collapse) before signal acquisition. To reduce foaming, 0.1% of Pluronic® L81 may be added to the sample. After bubbling, a saturation RF pulse is irradiated at the desired frequency and the signal of free Xe in solution is observed. ^129Xe Hyper-CEST MR images can be acquired using averages of a RARE sequence with a slice-selective 90° gaussian shaped excitation pulse and high RARE factor (up to 32 for a 32×32 matrix size) due to sufficiently slow T2 relaxation. Two images are acquired, one with an off-resonant saturation pulse for control and one with an on-resonant saturation pulse to induce signal loss in the vicinity of the sensor. Hyper-CEST MR images are obtained by a pixel-wise subtraction of the noise corrected off- and on-resonant images. All data analysis was performed with MATLAB®.

HEK293 cells = assay: Cellular uptake of cage-conjugated peptides, confocal microscopy and FACS (FIG. 8); assay type: cell-based; details: 25 μM, 20 minutes
Protocol: (A) Cage-conjugated peptides that were also labeled with fluorescein (25 μM) were incubated on HEK293 cells for 20 minutes followed by confocal microscopy imaging (nuclear counterstain with DAPI). (B) Analysis of FACS experiments with cells incubated with different peptides modified with cryptophane cages and fluorescein indicating labeling of the cells with the fluorescent peptides (sequences as indicated in FIG. 2; @K# indicates the lysine residue number used for conjugation of the cryptophane cage). […] The cellular uptake of similar EF-protein-binding peptides is likely due to their high scores on prediction tools for cell-penetration such as CPPpred or CellPPD.

| Kd (calmodulin [2]) [nM] | CEST suppression (baseline, absence of calcium) (calmodulin [4]) | Ca2+-dependent CEST unsuppression / signal change on calmodulin binding (calmodulin [4]; listed as @K3) | Ca2+-dependent CEST unsuppression / signal change on calmodulin binding (calmodulin [4]; listed as RS20-cage@K2) | CEST suppression (baseline, absence of calcium) (calmodulin [4]; listed as @K3) | CEST suppression (baseline, absence of calcium) (calmodulin [4]; listed as RS20-cage@K2) | Substance | CEST signal in TFE [1] | helicity of the peptide moiety (CD spectra) [1] | CEST signal in water [1] | sensor response on addition of saturating calcium [3] | sensor response on addition of just CaM [3] | Ca2+-dependent CEST unsuppression / signal change on calmodulin binding (calmodulin [4]; listed as cage-conjugated calcineurin) | cellular uptake (confocal microscopy) (HEK293 cells) | Ca2+-dependent CEST unsuppression / signal change on calmodulin binding (calmodulin [4]) |
| --- | --- | --- | --- | --- | --- | --- | --- | --- | --- | --- | --- | --- | --- | --- |
| 910 | – | – | – | – | – | G-K(Cr-A)-RRWKKNFIAVSAANRFKKISSSGAL-C(5-Fluo-M)-amid (GKRRWKKNFIAVSAANRFKKISSSGALC; cryptophane A on Lys; fluorescein on Cys; amide; Cr-A@K1_M13_Fluorescein) | turned on | increase of the helicity | no CEST signal | stronger response | turned on the sensor | – | – | – |
| – | neither show a suppression | – | – | – | – | ARKEVIRNKIRAIGK-CrytophaneCage-MARVFSVLR [calcineurin A peptide] | – | – | – | – | – | does not exhibit a change in the CEST effect | – | – |
| 1000 | complete CEST suppression | – | – | – | – | GRR-K(Cr-A)-WQKTGHAVRAIGRLSSS-C(5-Fluo-M)-amid (GRRK(Cr‑A)WQKTGHAVRAIGRLSSSC(5‑Fluo‑M)-NH2) [Cr-A@K1_RS20_Fluorescein] | turned on | increase of the helicity | no CEST signal | stronger response | turned on the sensor | – | uptake | strong, Ca^2+-dependent CEST unsuppression |
| – | – | weaker | diminishes | weaker | diminishes the CEST suppression | GRRKWQK(Cr-A)-TGHAVRAIGRLSSS-C(5-Fluo-M)-amid (GRRKWQK(Cr‑A)TGHAVRAIGRLSSSC(5‑Fluo‑M)-NH2) [Cr-A@K3_RS20_Fluorescein, RS20 peptide with cryptophane A shifted three amino acids toward the center, C-terminal fluorescein] | – | – | – | – | – | – | – | – |
